B1: Ran-binding protein 3 (Homo sapiens), Q9H6Z4 (parent)
chain: MADLANEEKPAIAPPVFVFQKDKGQKSPAEQKNLSDSGEEPRGEAEAPHHGTGHPESAGEHALEPPAPAGASASTPPPPAPEAQLPPFPRELAGRSAGGSSPEGGEDSDREDGNYCPPVKRERTSSLTQFPPSQSEERSSGFRLKPPTLIHGQAPSAGLPSQKPKEQQRSVLRPAVLQAPQPKALSQTVPSSGTNGVSLPADCTGAVPAASPDTAAWRSPSEAADEVCALEEKEPQKNESSNASEEEACEKKDPATQQAFVFGQNLRDRVKLINESVDEADMENAGHPSADTPTATNYFLQYISSSLENSTNSADASSNKFVFGQNMSERVLSPPKLNEVSSDANRENAAAESGSESSSQEATPEKESLAESAAAYTKATARKCLLEKVEVITGEEAESNVLQMQCKLFVFDKTSQSWVERGRGLLRLNDMASTDDGTLQSRLVMRTQGSLRLILNTKLWAQMQIDKASEKSIRITAMDTEDQGVKVFLISASSKDTGQLYAALHHRILALRSRVEQEQEAKMPAPEPGAAPSNEEDDSDDDDVLAPSGATAAGAGDEGDGQTTGST
partner: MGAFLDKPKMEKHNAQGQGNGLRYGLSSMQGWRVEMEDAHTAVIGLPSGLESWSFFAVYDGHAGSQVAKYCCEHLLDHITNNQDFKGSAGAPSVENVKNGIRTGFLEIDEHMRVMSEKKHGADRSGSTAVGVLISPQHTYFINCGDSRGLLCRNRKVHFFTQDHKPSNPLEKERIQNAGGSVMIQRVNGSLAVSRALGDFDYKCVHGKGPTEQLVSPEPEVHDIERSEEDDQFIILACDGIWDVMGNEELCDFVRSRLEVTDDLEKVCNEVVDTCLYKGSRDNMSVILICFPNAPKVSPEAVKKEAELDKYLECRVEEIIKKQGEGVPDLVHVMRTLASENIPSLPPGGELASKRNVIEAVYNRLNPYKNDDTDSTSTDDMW
B2: Ran-binding protein 3 (Homo sapiens), Q9H6Z4 (parent)
chain: B1 chain

Variants of B1 are the subject of the first experiment. To be noted: with ppm1a_human PPM1A.
As for MADLANEEKPAIAPPVFVFQKDKGQKSPAEQKNLSDSGEEPRGEAEAPHHGTGHPEAAGEHALEPPAPAGASASTPPPPAPEAQLPPFPRELAGRSAGGSSPEGGEDSDREDGNYCPPVKRERTSSLTQFPPSQSEERSSGFRLKPPTLIHGQAPSAGLPSQKPKEQQRSVLRPAVLQAPQPKALSQTVPSSGTNGVSLPADCTGAVPAASPDTAAWRSPSEAADEVCALEEKEPQKNESSNASEEEACEKKDPATQQAFVFGQNLRDRVKLINESVDEADMENAGHPSADTPTATNYFLQYISSSLENSTNSADASSNKFVFGQNMSERVLSPPKLNEVSSDANRENAAAESGSESSSQEATPEKESLAESAAAYTKATARKCLLEKVEVITGEEAESNVLQMQCKLFVFDKTSQSWVERGRGLLRLNDMASTDDGTLQSRLVMRTQGSLRLILNTKLWAQMQIDKASEKSIRITAMDTEDQGVKVFLISASSKDTGQLYAALHHRILALRSRVEQEQEAKMPAPEPGAAPSNEEDDSDDDDVLAPSGATAAGAGDEGDGQTTGST [S57A], the “effect of a mutation on the interaction” value is “decreasing interaction”.

The variants in another experiment derive from B1. To be noted: with ppm1a_human PPM1A. This is another data set of the same source.
With MADLANEEKPAIAPPVFVFQKDKGQKSPAEQKNLSDSGEEPRGEAEAPHHGTGHPEDAGEHALEPPAPAGASASTPPPPAPEAQLPPFPRELAGRSAGGSSPEGGEDSDREDGNYCPPVKRERTSSLTQFPPSQSEERSSGFRLKPPTLIHGQAPSAGLPSQKPKEQQRSVLRPAVLQAPQPKALSQTVPSSGTNGVSLPADCTGAVPAASPDTAAWRSPSEAADEVCALEEKEPQKNESSNASEEEACEKKDPATQQAFVFGQNLRDRVKLINESVDEADMENAGHPSADTPTATNYFLQYISSSLENSTNSADASSNKFVFGQNMSERVLSPPKLNEVSSDANRENAAAESGSESSSQEATPEKESLAESAAAYTKATARKCLLEKVEVITGEEAESNVLQMQCKLFVFDKTSQSWVERGRGLLRLNDMASTDDGTLQSRLVMRTQGSLRLILNTKLWAQMQIDKASEKSIRITAMDTEDQGVKVFLISASSKDTGQLYAALHHRILALRSRVEQEQEAKMPAPEPGAAPSNEEDDSDDDDVLAPSGATAAGAGDEGDGQTTGST [S57D], the “effect of a mutation on the interaction” value is “increasing interaction”.

The next experiment covers variants of B2. To be noted: with smad2_human SMAD2, Q15796.
Chain of smad2_human SMAD2, Q15796 (Q15796 whole entry): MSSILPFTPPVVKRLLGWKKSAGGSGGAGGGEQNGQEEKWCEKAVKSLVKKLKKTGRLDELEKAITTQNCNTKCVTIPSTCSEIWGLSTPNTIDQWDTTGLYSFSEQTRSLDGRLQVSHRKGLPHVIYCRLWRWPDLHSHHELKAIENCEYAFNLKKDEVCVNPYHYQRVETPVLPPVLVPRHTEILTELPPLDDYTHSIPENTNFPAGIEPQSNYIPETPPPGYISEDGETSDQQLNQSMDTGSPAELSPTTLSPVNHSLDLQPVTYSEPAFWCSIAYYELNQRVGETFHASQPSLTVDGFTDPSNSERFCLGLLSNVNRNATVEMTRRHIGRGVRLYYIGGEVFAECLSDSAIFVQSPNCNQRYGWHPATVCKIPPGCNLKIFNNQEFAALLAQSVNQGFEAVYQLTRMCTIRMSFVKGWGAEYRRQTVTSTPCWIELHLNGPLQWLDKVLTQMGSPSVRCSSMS
Turning to MADLANEEKPAIAPPVFVFQKDKGQKSPAEQKNLSDSGEEPRGEAEAPHHGTGHPEDAGEHALEPPAPAGASASTPPPPAPEAQLPPFPRELAGRSAGGSSPEGGEDSDREDGNYCPPVKRERTSSLTQFPPSQSEERSSGFRLKPPTLIHGQAPSAGLPSQKPKEQQRSVLRPAVLQAPQPKALSQTVPSSGTNGVSLPADCTGAVPAASPDTAAWRSPSEAADEVCALEEKEPQKNESSNASEEEACEKKDPATQQAFVFGQNLRDRVKLINESVDEADMENAGHPSADTPTATNYFLQYISSSLENSTNSADASSNKFVFGQNMSERVLSPPKLNEVSSDANRENAAAESGSESSSQEATPEKESLAESAAAYTKATARKCLLEKVEVITGEEAESNVLQMQCKLFVFDKTSQSWVERGRGLLRLNDMASTDDGTLQSRLVMRTQGSLRLILNTKLWAQMQIDKASEKSIRITAMDTEDQGVKVFLISASSKDTGQLYAALHHRILALRSRVEQEQEAKMPAPEPGAAPSNEEDDSDDDDVLAPSGATAAGAGDEGDGQTTGST [S57D], the “effect of a mutation on the interaction” value is “decreasing interaction”.

The values are drawn from IntAct's records for PubMed 21960005.
